# Laboratory results reported in patent US20230263863A1, “COMPOSITIONS HAVING NEUROREGENERATIVE APPLICATIONS” (GRIFOLS WORLDWIDE OPERATIONS LIMITED, priority 2020, published 2023).
# System: SH-SY5Y cells
# Assay: Neurite outgrowth (Outgrowth Fold Change) in undifferentiated SH-SY5Y cells
# Assay type: cell-based, human
# Conditions: for neurogenesis / differentiation (neurite outgrowth): all proteins 0.2 mg/mL
# Method: Undifferentiated SH-SY5Y cells were seeded into 96 well clear bottom plates in media containing 0.1% FBS. A serum-free base media was utilized as recommended by the supplier for SH-SY5Y cells (Sigma, Cat #94030304-1VL). Twenty-four hours after seeding cells, a 3× stock solution of ApoTf, final concentrations indicated on the x-axis, in serum free base media was added to the cells. ApoTf was obtained and purified from pooled human plasma and dosed at a final concentration of 0.2 mg/mL. Cells were allowed to differentiate for 6 days. Neurite growth was assessed by imaging and image analysis. At the time of analysis, a 10× solution of Tubulin Tracker (Molecular Probes, T34075) and Hoechst 33342 (Molecular Probes #H3570) nuclear stain was prepared.
# Briefly, Tubulin Tracker dissolved in DMSO was diluted 1:1 with Pluronic F-127 and further diluted into HBSS to generate a 10× solution. Hoechst 33342 was added to the HBSS-Tubulin Tracker solution at 10 μg/mL to generate a 10× nuclear stain. The 10× staining solution (10 μL) was added directly to treated assay wells and incubated at 37° C. for 30 minutes. Following incubation, 110 μL of 0.4% Trypan Blue was added directly to assay wells and imaged on a Molecular Devices Nano imaging instrument. Nine images/well were acquired in the blue (Nuclei) and green (Tubulin) fluorescent channels for each image.
# After obtaining images, the MetaExpress Neurite Outgrowth analysis module (Molecular Devices) was used to identify cells, cell bodies, and quantify neurites. The total number of neurite branches were divided by the total number of cells imaged to account for different numbers of cells in each test well. The Outgrowth Fold Change was determined by setting the untreated control cells to a value of 1 with all other treatments shown relative to untreated control.
molecule,measurement,setting,value
"N-mut rec ApoTf: Y95F/Y188F transferrin N-lobe mutant protein, SEQ ID NO: 4, reduced iron-binding capacity (protein, Y95F/Y188F mutant) VPDKTVRWCAVSEHEATKCQSFRDHMKSVIPSDGPSVACVKKASYLDCIRAIAANEADAVTLDAGLVYDAYLAPNNLKPVVAEFYGSKEDPQTFFYAVAVVKKDSGFQMNQLRGKKSCHTGLGRSAGWNIPIGLLYCDLPEPRKPLEKAVANFFSGSCAPCADGTDFPQLCQLCPGCGCSTLNQYFGFSGAFKCLKDGAGDVAFVKHSTIFENLANKADRDQYELLCLDNTRKPVDEYKDCHLAQVPSHTVVARSMGGKEDLIWELLNQAQEHFGKDKSKEFQLFSSPHGKDLLFKDSAHGFLKVPPRMDAKMYLGYEYVTAIRNLREGTCPEAPTDECKPVKWCALSHHERLKCDEWSVNSVGKIECVSAETTEDCIAKIMNGEADAMSLDGGFVYIAGKCGLVPVLAENYNKSDNCEDTPEAGYFAVAVVKKSASDLTWDNLKGKKSCHTAVGRTAGWNIPMGLLYNKINHCRFDEFFSEGCAPGSKKDSSLCKLCMGSGLNLCEPNNKEGYYGYTGAFRCLVEKGDVAFVKHQTVPQNTGGKNPDPWAKNLNEKDYELLCLDGTRKPVEEYANCHLARAPNHAVVTRKDKEACVHKILRQQQHLFGSNVTDCSGNFCLFRSETKDLLFRDDTVCLAKLHDRNTYEKYLGEEYVKAVGNLRKCSTSSLLEACTFRRP",neurogenesis / differentiation (neurite outgrowth),FIG. 3B,almost equal to that of ApoTf and rec ApoTf at inducing differentiation
"apo-lactoferrin: structural and functional homologue of apo-transferrin, from Athens Research & Technology (protein, UniProt P02788 20-710, looked up, apo form, structural and functional homologue of apo-transferrin, from Athens Research & Technology) Lactotransferrin: GRRRSVQWCAVSQPEATKCFQWQRNMRKVRGPPVSCIKRDSPIQCIQAIAENRADAVTLDGGFIYEAGLAPYKLRPVAAEVYGTERQPRTHYYAVAVVKKGGSFQLNELQGLKSCHTGLRRTAGWNVPIGTLRPFLNWTGPPEPIEAAVARFFSASCVPGADKGQFPNLCRLCAGTGENKCAFSSQEPYFSYSGAFKCLRDGAGDVAFIRESTVFEDLSDEAERDEYELLCPDNTRKPVDKFKDCHLARVPSHAVVARSVNGKEDAIWNLLRQAQEKFGKDKSPKFQLFGSPSGQKDLLFKDSAIGFSRVPPRIDSGLYLGSGYFTAIQNLRKSEEEVAARRARVVWCAVGEQELRKCNQWSGLSEGSVTCSSASTTEDCIALVLKGEADAMSLDGGYVYTAGKCGLVPVLAENYKSQQSSDPDPNCVDRPVEGYLAVAVVRRSDTSLTWNSVKGKKSCHTAVDRTAGWNIPMGLLFNQTGSCKFDEYFSQSCAPGSDPRSNLCALCIGDEQGENKCVPNSNERYYGYTGAFRCLAENAGDVAFVKDVTVLQNTDGNNNEAWAKDLKLADFALLCLDGKRKPVTEARSCHLAMAPNHAVVSRMDKVERLKQVLLHQQAKFGRNGSDCPDKFCLFQSETKNLLFNDNTECLARLHGKTTYEKYLGPQYVAGITNLKKCSTSPLLEACEFLRK",neurogenesis / differentiation (neurite outgrowth),FIG. 4,induced differentiation
"BDNF: brain-derived neurotrophic factor; NGF superfamily; SEQ ID NO: 6 (protein, listed as Homo sapiens) MFHQVRRVMTILFLTMVISYFGCMKAAPMKEANIRGQGGLAYPGVRTHGTLESVNGPKAGSRGLTSLADTFEHVIEELLDEDQKVRPNEENNKDADLYTSRVMLSSQVPLEPPLLFLLEEYKNYLDAANMSMRVRRHSDPARRGELSVCDSISEWVTAADKKTAVDMSGGTVTVLEKVPVSKGQLKQYFYETKCNPMGYTKEGCRGIDKRHWNSQCRTTQSYVRALTMDSKKRIGWRFIRIDTSCVCTLTIKRGR","differentiation (neurite outgrowth), factor alone","FIGS. 7A-7D, absence of ApoTf, BDNF 25 ng/mL, GDNF 1000 ng/mL, CNTF 250 ng/mL, PACAP 200 nM",differentiation was not induced
